In PMC2785583 (The Journal of Biological Chemistry, 2009):

Assays:
SDS-PAGE = target: the molecule itself; assay: SDS-PAGE
[1] = target: Protein FAF (F. magna adhesion factor), recombinant, amino acids 28-616 (Finegoldia magna); assay: SPR

B1: Recombinant human MIG/CXCL9 (monokine induced by gamma-interferon) (ligand, UniProt Q07325 23-125, looked up)
chain: TPVVRKGRCSCISTNQGTIHLQSLKDLKQFAPSPSCEKIEIIATLKNGVQTCLNPDSADVKELIKKWEKQVSQKKKQKNGKKHQKKKVLKVRKSQRSRQKKTT
binding result (SDS-PAGE): binds
Kd [1]: 4.9 nM
